Test results published in patent publication US20130217616.

Assays:
[1] = biological target: recombinant human Ficolin-3 (rFicolin-3), O75636
[2] = biological target: recombinant, full-length, non-tagged mannose-binding lectin (rMBL), P11226
Chain of recombinant, full-length, non-tagged mannose-binding lectin (rMBL), P11226 (P11226 21-248): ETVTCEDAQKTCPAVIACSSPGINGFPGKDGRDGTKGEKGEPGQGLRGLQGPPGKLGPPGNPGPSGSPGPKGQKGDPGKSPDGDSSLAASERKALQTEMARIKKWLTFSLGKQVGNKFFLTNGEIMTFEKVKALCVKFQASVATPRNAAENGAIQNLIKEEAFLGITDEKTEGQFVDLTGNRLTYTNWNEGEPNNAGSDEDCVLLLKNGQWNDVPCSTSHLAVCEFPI

Chain of recombinant human Ficolin-3 (rFicolin-3), O75636 (O75636 24-299): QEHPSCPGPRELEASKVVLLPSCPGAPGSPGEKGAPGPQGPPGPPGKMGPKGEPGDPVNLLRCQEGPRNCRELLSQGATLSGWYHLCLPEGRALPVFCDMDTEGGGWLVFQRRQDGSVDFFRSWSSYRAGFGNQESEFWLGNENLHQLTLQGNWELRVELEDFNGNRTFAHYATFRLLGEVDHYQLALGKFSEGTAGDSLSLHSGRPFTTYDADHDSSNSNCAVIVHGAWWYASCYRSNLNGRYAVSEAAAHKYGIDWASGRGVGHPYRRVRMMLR

B1: recombinant human MBL-Associated Serine Protease-2 (rMASP-2) (protein)
chain: TPLGPKWPEPVFGRLASPGFPGEYANDQERRWTLTAPPGYRLRLYFTHFDLELSHLCEYDFVKLSSGAKVLATLCGQESTDTERAPGKDTFYSLGSSLDITFRSDYSNEKPFTGFEAFYAAEDIDECQVAPGEAPTCDHHCHNHLGGFYCSCRAGYVLHRNKRTCSALCSGQVFTQRSGELSSPEYPRPYPKLSSCTYSISLEEGFSVILDFVESFDVETHPETLCPYDFLKIQTDREEHGPFCGKTLPHRIETKSNTVTITFVTDESGDHTGWKIHYTSTAQPCPYPMAPPNGHVSPVQAKYILKDSFSIFCETGYELLQGHLPLKSFTAVCQKDGSWDRPMPACSIVDCGPPDDLPSGRVEYITGPGVTTYKAVIQYSCEETFYTMKVNDGKYVCEADGFWTSSKGEKSLPVCEPVCGLSARTTGGRIYGGQKAKPGDFPWQVLILGGTTAAGALLYDNWVLTAAHAVYEQKHDASALDIRMGTLKRLSPHYTQAWSEAVFIHEGYTHDAGFDNDIALIKLNNKVVINSNITPICLPRKEAESFMRTDDIGTASGWGLTQRGFLARNLMYVDIPIVDHQKCTAAYEKPPYPRGSVTANMLCAGLESGGKDSCRGDSGGALVFLDSETERWFVGGIVSWGSMNCGEAGQYGVYTKVINYIPWIENIISDF
[1]
  C4 deposition (AcBSA/rFicolin-3, Ficolin-3 deficient serum): Application of rMASP-2 resulted in a strong positive dose dependent enhancement of the C4 deposition via both the Ficolin-3 and MBL activation pathways
[2]
  C4 deposition (mannan/rMBL, MBL deficient serum): Application of rMASP-2 resulted in a strong positive dose dependent enhancement of the C4 deposition via both the Ficolin-3 and MBL activation pathways
  activation of C3 and C4: MASP-2 were able to strongly activate both the C3 and C4 complement proteins

B2: recombinant human MBL-Associated Serine Protease-1 (rMASP-1) (protein)
chain: HTVELNNMFGQIQSPGYPDSYPSDSEVTWNITVPDGFRIKLYFMHFNLESSYLCEYDYVKVETEDQVLATFCGRETTDTEQTPGQEVVLSPGSFMSITFRSDFSNEERFTGFDAHYMAVDVDECKEREDEELSCDHYCHNYIGGYYCSCRFGYILHTDNRTCRVECSDNLFTQRTGVITSPDFPNPYPKSSECLYTIELEEGFMVNLQFEDIFDIEDHPEVPCPYDYIKIKVGPKVLGPFCGEKAPEPISTQSHSVLILFHSDNSGENRGWRLSYRAAGNECPELQPPVHGKIEPSQAKYFFKDQVLVSCDTGYKVLKDNVEMDTFQIECLKDGTWSNKIPTCKIVDCRAPGELEHGLITFSTRNNLTTYKSEIKYSCQEPYYKMLNNNTGIYTCSAQGVWMNKVLGRSLPTCLPVCGLPKFSRKLMARIFNGRPAQKGTTPWIAMLSHLNGQPFCGGSLLGSSWIVTAAHCLHQSLDPEDPTLRDSDLLSPSDFKIILGKHWRLRSDENEQHLGVKHTTLHPQYDPNTFENDVALVELLESPVLNAFVMPICLPEGPQQEGAMVIVSGWGKQFLQRFPETLMEIEIPIVDHSTCQKAYAPLKKKVTRDMICAGEKEGGKDACAGDSGGPMVTLNRERGQWYLVGTVSWGDDCGKKDRYGVYSYIHHNKDWIQRVTGVRN
[2]
  activation of C3 and C4: MASP-1 were able to activate both the C3 and C4 complement proteins

B3: recombinant human MBL-Associated Serine Protease-3 (rMASP-3) (protein)
chain: HTVELNNMFGQIQSPGYPDSYPSDSEVTWNITVPDGFRIKLYFMHFNLESSYLCEYDYVKVETEDQVLATFCGRETTDTEQTPGQEVVLSPGSFMSITFRSDFSNEERFTGFDAHYMAVDVDECKEREDEELSCDHYCHNYIGGYYCSCRFGYILHTDNRTCRVECSDNLFTQRTGVITSPDFPNPYPKSSECLYTIELEEGFMVNLQFEDIFDIEDHPEVPCPYDYIKIKVGPKVLGPFCGEKAPEPISTQSHSVLILFHSDNSGENRGWRLSYRAAGNECPELQPPVHGKIEPSQAKYFFKDQVLVSCDTGYKVLKDNVEMDTFQIECLKDGTWSNKIPTCKIVDCRAPGELEHGLITFSTRNNLTTYKSEIKYSCQEPYYKMLNNNTGIYTCSAQGVWMNKVLGRSLPTCLPECGQPSRSLPSLVKRIIGGRNAEPGLFPWQALIVVEDTSRVPNDKWFGSGALLSASWILTAAHVLRSQRRDTTVIPVSKEHVTVYLGLHDVRDKSGAVNSSAARVVLHPDFNIQNYNHDIALVQLQEPVPLGPHVMPVCLPRLEPEGPAPHMLGLVAGWGISNPNVTVDEIISSGTRTLSDVLQYVKLPVVPHAECKTSYESRSGNYSVTENMFCAGYYEGGKDTCLGDSGGAFVIFDDLSQRWVVQGLVSWGGPEECGSKQVYGVYTKVSNYVDWVWEQMGLPQSVVEPQVER
[2]
  activation of C3 and C4: MASP-3 were able to inhibit the activation of both the C3 and C4 complement proteins
